Source: article PMC4950921

Assays:
[1] = biological target: EphA2 L223R/L254R/V255R mutant (UniProt P29317)
[2] = biological target: EphA2 L223R/L254R/V255R mutant (UniProt P29317); remark: listed apart in the source

Chain of UniProt P29317 (P29317 24-976 L223R/L254R/V255R): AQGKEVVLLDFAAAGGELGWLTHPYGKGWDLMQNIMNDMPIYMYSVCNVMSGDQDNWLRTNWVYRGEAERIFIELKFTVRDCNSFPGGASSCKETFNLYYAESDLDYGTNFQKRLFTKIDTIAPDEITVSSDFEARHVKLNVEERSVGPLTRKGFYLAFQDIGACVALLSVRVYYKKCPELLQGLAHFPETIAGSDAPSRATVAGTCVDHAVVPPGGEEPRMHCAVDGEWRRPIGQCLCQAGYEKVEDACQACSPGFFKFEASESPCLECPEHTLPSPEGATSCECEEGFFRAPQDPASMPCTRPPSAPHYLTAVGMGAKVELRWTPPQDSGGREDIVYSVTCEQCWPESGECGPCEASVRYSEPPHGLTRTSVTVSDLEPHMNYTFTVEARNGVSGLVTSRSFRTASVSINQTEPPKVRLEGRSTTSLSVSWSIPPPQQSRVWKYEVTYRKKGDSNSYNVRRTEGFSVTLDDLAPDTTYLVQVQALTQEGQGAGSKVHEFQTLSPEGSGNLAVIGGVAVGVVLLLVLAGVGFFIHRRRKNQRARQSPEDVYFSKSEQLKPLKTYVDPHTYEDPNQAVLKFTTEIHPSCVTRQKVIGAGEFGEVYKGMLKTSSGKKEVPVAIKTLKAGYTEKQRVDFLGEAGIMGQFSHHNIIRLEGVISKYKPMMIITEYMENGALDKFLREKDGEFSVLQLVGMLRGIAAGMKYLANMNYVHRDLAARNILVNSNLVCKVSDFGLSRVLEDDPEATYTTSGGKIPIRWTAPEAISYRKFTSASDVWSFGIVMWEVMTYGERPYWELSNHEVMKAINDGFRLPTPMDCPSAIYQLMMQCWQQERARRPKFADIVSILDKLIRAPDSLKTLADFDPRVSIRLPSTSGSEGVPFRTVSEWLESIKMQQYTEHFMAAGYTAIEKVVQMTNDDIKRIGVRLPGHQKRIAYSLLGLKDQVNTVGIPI

decrease of EphA2 Ser897 phosphorylation, Western blot, HEK293T, 6 uM YSA [1]: 35%
suppression of migration of transfected HEK293T cells, transwell assay, 6 uM YSA [2]: 25%
Binder: YSAYPDSVPMMSGSGSK [YSA peptide with the GSGSK linker]
